B1: 20 bp C/EBPalpha site DNA (dsDNA)
DNA 1: ATCTTCAGCTGGTTGCTGAG
DNA 2: CTCAGCAACCAGCTGAAGAT
B2: 162 bp CX3CR1 DNA (dsDNA)
DNA 1: TAGGTGCAGGGCCTCTCGGCTGCTGATCTTCAGCTGGTTGCTGAGAGTTGCAGCATTGCTGAGTCTTAGCAATGGATACTTCCCGATTCCCCTCACAAAAATAGGTCAGTCTGTCTGGCTAGTTCTGTACTTGCAGACACAGGGCATGTGGGGTTCCTATTT
DNA 2: AAATAGGAACCCCACATGCCCTGTGTCTGCAAGTACAGAACTAGCCAGACAGACTGACCTATTTTTGTGAGGGGAATCGGGAAGTATCCATTGCTAAGACTCAGCAATGCTGCAACTCTCAGCAACCAGCTGAAGATCAGCAGCCGAGAGGCCCTGCACCTA

Tests used:
MBP-DBD C/EBPalpha = MBP-DBD C/EBPalpha (UniProt P53566 214-359); test: EMSA; 5 uM DNA; MBP fusion assumed; EMSA: 20 mM HEPES pH 7.3, 150 mM NaCl, 0.5 mM TCEP, 30 min room temperature, 0.5 uM nucleosome or DNA; FRET: 20 mM HEPES pH 7.1, 100 mM NaCl, 0.5 mM TCEP, 200 nM nucleosome; details: protein: recombinant; tags: N-terminal MBP; chain copies: 2; blunt
PU.1 ETS (ETSPU.1) = PU.1 ETS (ETSPU.1) (mouse, UniProt P17433 165-272); test: EMSA; EMSA: 20 mM HEPES pH 7.3, 150 mM NaCl, 0.5 mM TCEP, 30 min room temperature, 0.5 uM nucleosome or DNA; FRET: 20 mM HEPES pH 7.1, 100 mM NaCl, 0.5 mM TCEP, 200 n
PU.1 full-length = PU.1 full-length (mouse, UniProt P17433 1-272); test: EMSA; EMSA: 20 mM HEPES pH 7.3, 150 mM NaCl, 0.5 mM TCEP, 30 min room temperature, 0.5 uM nucleosome or DNA; FRET: 20 mM HEPES pH 7.1, 100 mM NaCl, 0.5 mM TCEP, 200 nM nucleosome; details: protein: recombinant; tags: N-terminal His
PU.1 ETS Q218H = PU.1 ETS Q218H (mouse, UniProt P17433 165-272, Q218H); test: EMSA; little effect of Q218H; EMSA: 20 mM HEPES pH 7.3, 150 mM NaCl, 0.5 mM TCEP, 30 min room temperature, 0.5 uM nucleosome or DNA; FRET: 20 mM HEPES pH 7.1, 100 mM NaCl, 0.5 mM TCEP, 200 n

Sequence of MBP-DBD C/EBPalpha (P53566 214-359): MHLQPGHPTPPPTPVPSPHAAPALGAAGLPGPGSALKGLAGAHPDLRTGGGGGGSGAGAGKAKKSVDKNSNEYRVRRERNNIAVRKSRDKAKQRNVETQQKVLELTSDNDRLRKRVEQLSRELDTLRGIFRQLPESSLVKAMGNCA

Binder | binding result (MBP-DBD C/EBPalpha) | binding result (PU.1 ETS (ETSPU.1)) | binding result (PU.1 full-length) | binding result (PU.1 ETS Q218H)
B1 | binds |  |  | 
B2 |  | binds | binds | binds
